Reference: the supplement of paper PMC12764529
± gives the half width of the 95% confidence interval.

Legend:
[1] = folding stability dG unfold from chymotrypsin proteolysis; higher = more stable
In short: (§1)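 Mini-proteins designed to be under 80 residues and free of cysteine were carried in a PA-tagged cDNA display construct and digested with trypsin and with chymotrypsin. Each protease was applied at 11 threefold-diluted concentrations, alongside a no-protease condition, before sequencing. K50 came from Bayesian fitting of the sequencing counts, and unfolding free energy was obtained by comparing it with a sequence-predicted unfolded-state K50 and a shared folded-state K50, for each protease separately or for both together. Designs were retained only if their AlphaFold2 dimer inter-PAE exceeded 15.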

[2] = folding stability dG unfold (combined trypsin and chymotrypsin); higher = more stable
In short: as §1

[3] = folding stability dG unfold from trypsin proteolysis; higher = more stable
In short: as §1

## SAGGALEKILEAIENAPTSVPEVTVEIELPTGTLKATITNKGKPVLITIELTHPDGSKSTITLTFSLSAGGS [r16_642_TrMRF]
[1]
  folding stability dG unfold: 4.28 ± 0.079 kcal/mol
[2]
  folding stability dG unfold: 3.78 ± 0.063 kcal/mol
[3]
  folding stability dG unfold: 2.78 ± 0.091 kcal/mol

## SAGGAMPVELVETLEEIPGKGIVLRKFRDPLSDKWFLATVPVETLPNGEKKYLIELNIDGSGMTLELGSAGG [r13_993_JUSTAS]
[1]
  folding stability dG unfold: 0.11 ± 0.22 kcal/mol
[2]
  folding stability dG unfold: 0.173 ± 0.17 kcal/mol
[3]
  folding stability dG unfold: 0.0151 ± 0.099 kcal/mol

## SAGGAPVSVSTSTLPDGRTVTTTTYPSGSTTTTITDPVTGATATASSPGSGTTTFTDPATGATTVVGSAGGS [r16_91_JUSTAS]
[1]
  folding stability dG unfold: 0.635 ± 0.029 kcal/mol
[2]
  folding stability dG unfold: 1.02 ± 0.065 kcal/mol
[3]
  folding stability dG unfold: 1.36 ± 0.053 kcal/mol

## SAGGAPVTTFSLTLENPETGLNWTSTSATYDPATGTLTLNLKRPQSGESLTLTTPVTVVSPEEPELASAGGS [r8_193_JUSTAS]
[1]
  folding stability dG unfold: 0.819 ± 0.084 kcal/mol
[2]
  folding stability dG unfold: 0.813 ± 0.11 kcal/mol
[3]
  folding stability dG unfold: 0.699 ± 0.052 kcal/mol

## SAGGARVFEVTFPDGSRARIVLLPDGTLLLETDSLDNLVALLEALGVELVSIRRHPDGRVLAVARLPPSAGG [r19_257_TrMRF]
[1]
  folding stability dG unfold: 4.32 ± 0.14 kcal/mol
[2]
  folding stability dG unfold: 4.43 ± 0.082 kcal/mol
[3]
  folding stability dG unfold: 4.49 ± 0.14 kcal/mol

## SAGGASFSLSEGYDPSLGKTFTRETEAPEVPVPPVTVVPLSEIGRLKAEGVPPSWTVDPETGTVTVTSAGGS [r16_194_JUSTAS]
[1]
  folding stability dG unfold: 0.564 ± 0.072 kcal/mol
[2]
  folding stability dG unfold: 0.258 ± 0.059 kcal/mol
[3]
  folding stability dG unfold: -0.647 ± 0.19 kcal/mol

## SAGGATFAPGQTITVTVTVTLADGSTVTVTATVRIEVRAAPAPPVTVTNADGSTRTFTSAEEARAAASAGGS [r16_580_TrROS_Hall]
[1]
  folding stability dG unfold: 0.211 ± 0.25 kcal/mol
[2]
  folding stability dG unfold: 1.01 ± 0.098 kcal/mol
[3]
  folding stability dG unfold: 1.46 ± 0.033 kcal/mol

## SAGGATIELEAEEHPETKKITIYVKSENPILTIEKIAKELKEKEDDIELTLVNEDGVPYTIKLEDLISAGGS [r8_236_TrMRF]
[1]
  folding stability dG unfold: 0.38 ± 0.2 kcal/mol
[2]
  folding stability dG unfold: 0.217 ± 0.3 kcal/mol
[3]
  folding stability dG unfold: -0.957 ± 0.47 kcal/mol

## SAGGATIELEVLLEDGTLVRVRAELDEDGRLVSVEVEVRRLEPPPPPPPPERTETRVETRTEYRPEESAGGS [r8_270_TrROS_Hall]
[1]
  folding stability dG unfold: 3.23 ± 0.52 kcal/mol
[2]
  folding stability dG unfold: 2.95 ± 0.48 kcal/mol
[3]
  folding stability dG unfold: 2.73 ± 0.35 kcal/mol

## SAGGATITVEPAPGDSVVALAEFGDSLALVTFYPKEATAKVTVFGPNGIPSTATFTIKPGEELVITGSAGGS [r8_11_TrMRF]
[1]
  folding stability dG unfold: 1.59 ± 0.096 kcal/mol
[2]
  folding stability dG unfold: 1.47 ± 0.13 kcal/mol
[3]
  folding stability dG unfold: 1.25 ± 0.079 kcal/mol

## SAGGATLTLKPGDEITLTLTVTVTVTNEDGSTSTFTTTVTLTLRIEPAPPPPPVTVERDADGNLRVTLSAGG [r13_401_TrROS_Hall]
[1]
  folding stability dG unfold: 2.46 ± 0.091 kcal/mol
[2]
  folding stability dG unfold: 2.48 ± 0.18 kcal/mol
[3]
  folding stability dG unfold: 2.35 ± 0.089 kcal/mol

## SAGGATPLPDGGYRLTYTVKLSPSESVEDAPKAAAALAEKYGVTPVAITVDPSTGTVTIDILLPPEVRSAGG [r13_178_JUSTAS]
[1]
  folding stability dG unfold: 1.68 ± 0.11 kcal/mol
[2]
  folding stability dG unfold: 1.44 ± 0.095 kcal/mol
[3]
  folding stability dG unfold: 1.01 ± 0.046 kcal/mol

## SAGGAVEVKEIKILPPVLDPEGDPSNPLLRVEITTKITENTPEGKKILEKTKTYLVSPENLEEVLKKLSAGG [r13_149_JUSTAS]
[1]
  folding stability dG unfold: 1.98 ± 0.07 kcal/mol
[2]
  folding stability dG unfold: 2.18 ± 0.13 kcal/mol
[3]
  folding stability dG unfold: 2.05 ± 0.065 kcal/mol

## SAGGAVVTPETEGDRTFVTTTDPESGSRTVTVTTYDPTTNTATTTTYFVPPDGVPTRVATTTTPLPPTSAGG [r13_768_JUSTAS]
[1]
  folding stability dG unfold: 1.49 ± 0.097 kcal/mol
[2]
  folding stability dG unfold: 1.44 ± 0.13 kcal/mol
[3]
  folding stability dG unfold: 1.2 ± 0.077 kcal/mol

## SAGGDEDDWRPIEIPLYIRNPENGHLFQITPMKIWVPDNLTIEMEMEMFDPDDGKVEKHKMTFTIPAKSAGG [r13_206_TrROS]
[1]
  folding stability dG unfold: 2.09 ± 0.21 kcal/mol
[2]
  folding stability dG unfold: 1.64 ± 0.22 kcal/mol
[3]
  folding stability dG unfold: 1.2 ± 0.088 kcal/mol

## SAGGDEDKPKPKIEPKKEIEIVLPYPEDEVTPEELKARIEEETGEKITEIEVTRIPNSNEYKVKFTVESAGG [r13_457_JUSTAS]
[1]
  folding stability dG unfold: 0.68 ± 0.15 kcal/mol
[2]
  folding stability dG unfold: 0.577 ± 0.13 kcal/mol
[3]
  folding stability dG unfold: 0.227 ± 0.04 kcal/mol

## SAGGDFKPPVPTTQVLTFTIETSPEDPEKAKEIAEKLKKELLEKGAVKIEVTLDPEPGTVTVTVTLVKLSAG [r5_512_JUSTAS]
[1]
  folding stability dG unfold: 2.92 ± 0.063 kcal/mol
[2]
  folding stability dG unfold: 2.51 ± 0.19 kcal/mol
[3]
  folding stability dG unfold: 1.95 ± 0.069 kcal/mol

## SAGGDIKFEIGLELLPDGILVIRGSVEVRMGGQSVTYEFIIIVKIKPIPPPPPPPKPKYNPEDGKWKSAGGS [r8_269_TrROS]
[1]
  folding stability dG unfold: 2.89 ± 0.11 kcal/mol
[2]
  folding stability dG unfold: 2.58 ± 0.22 kcal/mol
[3]
  folding stability dG unfold: 2.32 ± 0.076 kcal/mol

## SAGGDKKKVKIHIFPPPGMPMDNFANYIQDQLGWDRNNIKVEPMDSPQEAERRAEKNGKPEIVIFFRSAGGS [r8_245_TrROS]
[1]
  folding stability dG unfold: 1.02 ± 0.54 kcal/mol
[2]
  folding stability dG unfold: 0.456 ± 0.32 kcal/mol
[3]
  folding stability dG unfold: -0.216 ± 0.31 kcal/mol

## SAGGDKLEDLPLEDVEVLRVEVIPLPDGGVLVVFEFKVSDEEGPERLVRVVVLVENDEARVFVEPLGSAGGS [r16_469_TrMRF]
[1]
  folding stability dG unfold: 3.2 ± 0.081 kcal/mol
[2]
  folding stability dG unfold: 2.91 ± 0.13 kcal/mol
[3]
  folding stability dG unfold: 2.05 ± 0.085 kcal/mol

## SAGGDMWMIKVEHPNGRPFQIMINPNKPEISIQFNDGETRTFPIPKDYTIEDLAKELPPGYKVEIHPMSAGG [r13_696_TrROS]
[1]
  folding stability dG unfold: 2.46 ± 0.051 kcal/mol
[2]
  folding stability dG unfold: 2.4 ± 0.17 kcal/mol
[3]
  folding stability dG unfold: 2.25 ± 0.1 kcal/mol

## SAGGDNIDVERHPHPNNMYMFSITIPPDYPLKIRYPNGPKHEIPIPDPNATIHFMFPPDEPIEIEIYPSAGG [r13_82_TrROS]
[1]
  folding stability dG unfold: 1.25 ± 0.12 kcal/mol
[2]
  folding stability dG unfold: 1.2 ± 0.083 kcal/mol
[3]
  folding stability dG unfold: 1.12 ± 0.019 kcal/mol

## SAGGDPDGKPKIEIKIKDINVEPDPDNGYYRATIKIRFPNGREINFDIPMPPGQTAEQVKEQAREMIQSAGG [r13_578_TrROS]
[1]
  folding stability dG unfold: 1.24 ± 0.095 kcal/mol
[2]
  folding stability dG unfold: 1.45 ± 0.17 kcal/mol
[3]
  folding stability dG unfold: 1.77 ± 0.025 kcal/mol

## SAGGDPGKPTSVTLTLTVPKDKKTVKLEVTFNPETGEAVITFPGSSKTVTLPFGSLPDVLDAAKKLLYSAGG [r13_439_TrMRF]
[1]
  folding stability dG unfold: 2.65 ± 0.035 kcal/mol
[2]
  folding stability dG unfold: 2.49 ± 0.07 kcal/mol
[3]
  folding stability dG unfold: 2.31 ± 0.063 kcal/mol

## SAGGDPLVLEFDGVTVVYDPKTKTLVVFAPSSEVERLVKALGPKFEPLEIFELEDGSVVMLVRIKPESAGGS [r8_415_TrMRF]
[1]
  folding stability dG unfold: 4.53 ± 0.1 kcal/mol
[2]
  folding stability dG unfold: 4.35 ± 0.13 kcal/mol
[3]
  folding stability dG unfold: 3.53 ± 0.12 kcal/mol

## SAGGDPNGKWVTINIPIWIPGPPEQAEMIAESIMEELGFEITDVKVEPHPDDPNWVRIDITLTFRKKSAGGS [r8_479_TrROS]
[1]
  folding stability dG unfold: 3.03 ± 0.044 kcal/mol
[2]
  folding stability dG unfold: 2.83 ± 0.18 kcal/mol
[3]
  folding stability dG unfold: 2.74 ± 0.097 kcal/mol

## SAGGDPPNIEVVPYRVKFGGKPIPIQVFVMPNGQTIVRIKFPNGKKGWMPADDLDELLKNPFEIERVSAGGS [r16_105_TrROS]
[1]
  folding stability dG unfold: 0.998 ± 0.14 kcal/mol
[2]
  folding stability dG unfold: 1.11 ± 0.14 kcal/mol
[3]
  folding stability dG unfold: 1.21 ± 0.023 kcal/mol

## SAGGDPVRIFIMSGNGIFPIEIPLDPGEKVEFEMKFNGQEVTITITPGDGEIEIEMPPGFNIMALEPSAGGS [r16_761_TrROS]
[1]
  folding stability dG unfold: 2.05 ± 0.038 kcal/mol
[2]
  folding stability dG unfold: 1.89 ± 0.11 kcal/mol
[3]
  folding stability dG unfold: 1.59 ± 0.086 kcal/mol

## SAGGDVTISIMIFVWPGWTEEQYKEMAKEVAKTIARQLAQKNPDLNENIDIEDIEVTIIPMEGDPDYFSAGG [r13_128_TrROS]
[1]
  folding stability dG unfold: 1.35 ± 0.1 kcal/mol
[2]
  folding stability dG unfold: 1.68 ± 0.19 kcal/mol
[3]
  folding stability dG unfold: 1.91 ± 0.049 kcal/mol

## SAGGEAEVVARAEVTLPDGVKVEVEVVRVDGKLVVRVRVEVRLPPPPPPPPPPLPPLSEEERKKLAEASAGG [r13_760_TrROS_Hall]
[1]
  folding stability dG unfold: 2.09 ± 0.16 kcal/mol
[2]
  folding stability dG unfold: 2.18 ± 0.22 kcal/mol
[3]
  folding stability dG unfold: 2.09 ± 0.091 kcal/mol

## SAGGEAEVVEPEEKLEIVDKETGKKITVYKVKNKETGEEVVLVEIEKNGKKYTVLMTKDELEALLKKSAGGS [r16_603_TrROS_Hall]
[1]
  folding stability dG unfold: 3.29 ± 0.057 kcal/mol
[2]
  folding stability dG unfold: 2.98 ± 0.28 kcal/mol
[3]
  folding stability dG unfold: 2.38 ± 0.21 kcal/mol

## SAGGEEEAVEKPFYQLPEKKPLKTVPMSREEALALARENPDLGILYAEEDGKLWKVDAETGTIEPLGSAGGS [r16_214_JUSTAS]
[1]
  folding stability dG unfold: 1.58 ± 0.11 kcal/mol
[2]
  folding stability dG unfold: 1.46 ± 0.14 kcal/mol
[3]
  folding stability dG unfold: 1.23 ± 0.043 kcal/mol

## SAGGEEEEFEVVAEIEIEVDGKTYTITIVRDKETDEYRVEIRNKETGETKTITVSAEELEELLKALSSAGGS [r8_469_TrROS_Hall]
[1]
  folding stability dG unfold: 4.77 ± 0.32 kcal/mol
[2]
  folding stability dG unfold: 4.77 ± 0.52 kcal/mol
[3]
  folding stability dG unfold: 3.17 ± 0.36 kcal/mol

## SAGGEEVVEEPPPPEVEVIEIRDAETDRTVTLVYNKDTGKLFLFDEDTGLVYEFDVDGRLVRVERLPPSAGG [r13_101_TrROS_Hall]
[1]
  folding stability dG unfold: 4.48 ± 0.1 kcal/mol
[2]
  folding stability dG unfold: 4.16 ± 0.39 kcal/mol
[3]
  folding stability dG unfold: 2.95 ± 0.26 kcal/mol

## SAGGEEVVVERPPAPPPITVTIEYDEETNTVTVTVTLPNGETLTITVEAPSLEEAEAAARELLEALSSAGGS [r16_319_TrROS_Hall]
[1]
  folding stability dG unfold: 2.96 ± 0.37 kcal/mol
[2]
  folding stability dG unfold: 2.93 ± 0.31 kcal/mol
[3]
  folding stability dG unfold: 2.66 ± 0.28 kcal/mol

## SAGGEFEVEELPPGGLLLVTFRAPADLPLEIPLEFTSPDGSPVEVAEYEREPFGDYVLITVLVRVPDSAGGS [r16_499_TrMRF]
[1]
  folding stability dG unfold: 2.77 ± 0.16 kcal/mol
[2]
  folding stability dG unfold: 2.73 ± 0.18 kcal/mol
[3]
  folding stability dG unfold: 2.25 ± 0.16 kcal/mol
